The target of this assay is MD39 HIV Env stabilized SOSIP trimer (MD39 HIV Env gp140) (HIV). Kind of assay: SEC-MALS; immunogens after S200 Increase size-exclusion chromatography in TBS; DAWN HELEOS II and Optilab T-rEX. For orientation: Size exclusion chromatography separates by hydrodynamic size, large species first.

The term stoichiometry N denotes a count of units in the complex or per binding partner. In turn, “MD39 HIV Env stabilized SOSIP trimer (MD39 HIV Env gp140)” gave a stoichiometry N of 3.

The values are drawn from paper PMC12335825.
